Data published in patent US4959351A, “Crystal suspensions of insulin derivatives, processes for their preparation and their use” (Hoescht Aktiengesellschaft, priority 1983, dated 1990).

Test: Specific biological activity of the insulin substance used (I.U./mg)
Settings: as stated in the composition

Substance | specific activity
human insulin-B30-choline ester [human insulin-(B30)-choline ester] | 28.0 I.U./mg
human insulin--Arg^B31 --Arg^B32 --OH | 27.0 I.U./mg
human insulin--Arg^B31 -Lys--^B32 --OCH3 [Human insulin-Arg^B31 -Lys^B31 -OCH3] | 27.0 I.U./mg
Porcine insulin--Arg^B31 --Arg^B32 --OH [Insulin-Arg^B31 -Arg^B32 -OH from pigs] | 27.0 I.U./mg
human insulin--Arg^B31 --OH [Human insulin-Arg^B31 -OH] | 27.5 I.U./mg
